This note sets out measurements from the RNAGym collection of RNA variant scans (doi:10.1073/pnas.2313332121).

The chains are these.
B1: TPR t1 (parent)
chain: GACCAAUCUGCCCUCAGAGCUCGAGAACAUCUUCGGAUGCAGAGGAGGCAGGCUUCGGUGGCGCGAUAGCGCCAACGUCCUCAACCUCCAAUGCAUCCCACCACAUGAUGAUGCCUGAAGAGCCUUGGUUUUUUG

In the data set the parent is B1. Briefly: polymerase ribozyme fitness, log enrichment relative to wild type (log ratio); higher = more active; in vitro selection for triplet polymerase activity. A digest of the protocol:
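Fitness measures genotype enrichment against wild-type enrichment on a logarithmic scale, with inverse-variance-weighted averaging of replicates. The logarithm is base 2, and genotypes were kept only with ≥10 input reads and ≥1 read per output in Illumina sequencing. The sequenced libraries came from one triplicate in vitro selection round, including frozen incubation at −7 °C, of PCR-built, transcribed mutant libraries of each subunit of a heterodimeric triplet polymerase ribozyme.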
For the variant GACCAACCUGCCCUCAGAGCUCGAGAACAUCUUCGGAUGCAGAGGAGGCAGGCUUCGGUGGCGCGAUAGCGCCGACGUACUCAACCUCCAAUACAUCCCACCACACGAUGAUGCCUUAAGAGCCUUGGCCUUUUG [U7C A74G C79A G93A U106C G117U U129C U130C], the “polymerase ribozyme fitness (log ratio)” value was -5.05.

For GACCAAUGUGCCCGCAGAGCUCGAGAACAUCUUCCGAUGCAGAGGAGGCAGGCUUCGGUGGCGUGAUAGCGCCAACGUCCUCAACCUCCAAUGUAUCCCACCACAUGAUGAUGCCUGAAGAGCCUUGGUUUUUUG [C8G U14G G35C C64U C94U], the “polymerase ribozyme fitness (log ratio)” value was -3.36.

In the case of GACCAAUCUGCCCUCAGAGCUGGAGAACAUCUUCGGAUGCAGAGGAGGCAGGCUUAGGUGGCGCGAUAGCGCCAACGUACUCAACCUCCAAUGCAUCCCACCACAUGAUGAUGCCUGAAGAGCCUUGGUUUUUUG [C22G C56A C79A], the “polymerase ribozyme fitness (log ratio)” value is -4.99.

For the variant GACCAAUCUGCCAUCAGAGCUCGAGAACAUCUUCGGAUGCAGAGGAGGCAGGCUUCGGUGGUGCGAUAGCGCCAACGUCCUCAACCUCCAAUGCAUCCCACCACAUGAUGAUGCCUGAAGAGCCUUGGUUUUUUG [C13A C62U], the “polymerase ribozyme fitness (log ratio)” value is -2.18.

For GACCAAUCUGCCCUCAGAGCUCGAGAACAUCUUCGGAUGCAGAGGAGGCAGGCUUGGGUGGCGCGAUAGCGUCAACGUCCUCAACCUCCAAUGCAUCCCACCACAUGAUGAUGCCUGAAGAGCCUUGGUUUUUUG [C56G C72U], the “polymerase ribozyme fitness (log ratio)” value is -1.05.

For GACCAAUCAGCAAUCAGGGCUCGAGAACAUCUUCGGAUGCAGAGGAGGCAGGCUUCGGUGGCGCGAUAGCGCCAACGUCCUCAACCUCCAAUGCAUCCCUCCACAUGAUGAUGCCUGAAGAGCCUUGGUUUUUUG [U9A C12A C13A A18G A100U], the “polymerase ribozyme fitness (log ratio)” value is -6.25.

On to GACCAAUCUGUCCUCAGAGCUGGAGAACAUCUUCGGAUGCAGAGGAGGCAGGCUUCGGUGGCGCGAUAGCGCCAACGUCCUCCACCUCCAAUGCAUCCCACCACAUGAUGAUGCCUGAAGAGCCUUGGUUUUUUG [C11U C22G A83C], for which the “polymerase ribozyme fitness (log ratio)” value is -4.06.

Turning to GACCAAUCUGCACUCAGAGCUCGAGAACAUCUUCGGAUGCAGAGGAGGCAGGCUUCGGUGGCGCGAUAACGCCAACGUCCUCAACCUCCUAUGCAUCCCACCACAUGAAGAUGCAUGAAGAGCCUUGGUUUUUUG [C12A G69A A90U U109A C115A], the “polymerase ribozyme fitness (log ratio)” value is -7.7.

As to GACCAAUCUGCCGUCAGAGCUCGAGAACAUCUUCGCAUGCAGAGGAGGCAGGCUUAGGUGGCGCGAUAGCGCCAACGACCUCAACCUCCGAUGCAUCCCACCACAUGAUGAUGCCUGAAGAGCCUUGGUUUUUUU [C13G G36C C56A U78A A90G G135U], the “polymerase ribozyme fitness (log ratio)” value was -4.08.

Regarding GACCAAUCUGCCCUCAGAGCUCGAGAACAUCUUCGGAUGCAGAGGAGGCAGGCUUCGGUGGCGCGAUAGCUCCAACGUCCUCAACCUCCAAUGCAUCCCACCACAUGAUGUUGCCUGAAGAGCCUUGGUUUUUUG [G71U A111U], the “polymerase ribozyme fitness (log ratio)” value was -3.91.

As for GACCAAUCUGCCCUCAGAGCUCGAGAACAUCUUCGGAUGCAGAGGAGGCAGGCUUCGGUGGCGCGAUAGCGCCAACGUCAUCACCCUCCAAUGCAUCCCACCACAUGAUGAUGCCUGAAGAGCCUUGGUUUUUUG [C80A A84C], the “polymerase ribozyme fitness (log ratio)” value was -3.11.

GGCCAAUCUGCCCUCAGAGCUCGAGAACAUCUUCGGAUGCAGAGGAGGCAGGCUUCGGUGGCGCGAUAGCGCCAACGUCCUCAACCUCCAAUGCAUCCCACCACAUGAUGAUGCCUGAAGAGCCUUGGUUUUUUG [A2G]: the “polymerase ribozyme fitness (log ratio)” value is -0.0197.

As for GACCAAUCUGCCCUCAGAGCUCGAGAACUUCUUCGGAUGCAGAGGAGGCAGUCUUCGGUGGCGCGAUAGCGCCAAAGUCCUCAACCUCCAAUGCAUCCCACCACAUGAUGAUGCCUGAAGAGUCUUGGUUUUUUU [A29U G52U C76A C123U G135U], the “polymerase ribozyme fitness (log ratio)” value was -3.34.

As for GACCAAUCGGCCCUCAGAGCUCGAGAACAUCUUCGGAUGCAGAGGAGGCAGGCGUCGGUGGCGCGAUAGCGCCAACGUCCACAACCUCCAAUGCAUCCCACCACAUGAUGAUGCCUGAAGAGCCAUGUUUUUUUG [U9G U54G U81A U125A G128U], the “polymerase ribozyme fitness (log ratio)” value was -3.65.

As for GACCAAUCUGCCCUCAGAGCUCGAGAACAUCUUCGGAUUCAGAGGAAGCAGGCUUCGGUGGCGCGAUAGCGCCAACGUCCUCAACUUCCAAUGCAUCCCAACACAUGAUGAUUCCUGAAGAGCCUUGGUUUUUUG [G39U G47A C86U C101A G113U], the “polymerase ribozyme fitness (log ratio)” value is -4.62.

On to GACAAAUCUGCCCUCAGAGCUCGAGAACAUCUUCGGAUGCAGAGGAGGCAGGCUUCGGUGGCGCGAUAGCGCCAACGUCCUCAACCUCCUAUGCAUCCCACCACAUGAUGAUGCCUGAAGAGCCUUGGUUUUUUG [C4A A90U], for which the “polymerase ribozyme fitness (log ratio)” value is -2.78.

Take GACCAAUCUGCCCUCAGAGCUCGAGUACAUCUUCGGAUGCAGAGGAGGCAGGGUUCGGUGGCGCGAUAGCGCUAACGUCCUCAACCUCCAAUGCAUCCCUCCACAUGAUGAUGCCUGAAGAGCCUUGGUUUUUUG [A26U C53G C73U A100U]: the “polymerase ribozyme fitness (log ratio)” value is -4.47.

For GACCAAGCUGCCCUCAGAGCUCGAGAACAUCUUCGGUUGCAGAGGAUGCAGGCUUCGGUGGCGCGAGAGUGCCAACGUCCUCAACCUCCAAUGCAUCCCACCACAUGAUGAUGCCUGAAGAGCCUUGGUUUUUUG [U7G A37U G47U U67G C70U], the “polymerase ribozyme fitness (log ratio)” value was -7.04.

In the case of GGCCAAUCUGCCCUCAGAGCUCGAGAACAUCUUCGGAUGCAGAGGAGGCAGGCUUGGGUGGCGCGAUAGGGCCAACGUCCUCAACCUCCAAUGCAUCCCACCACAUGAUGAAGCCUGAAGAGCCUUGGUUUUUUG [A2G C56G C70G U112A], the “polymerase ribozyme fitness (log ratio)” value was -3.63.

Turning to GACCAAUCUGCCCUCAGAGCUCGAGAACAUCUUCGGAUGCAGAGGAGGCAGGCUUCGGAGGCGCGAUAGCACCAACGUCCUCAACCUCCAGUGCAUCCCUCCACAUGAUGAUACCUGAAGAGCCUUGGUUUUUUG [U59A G71A A91G A100U G113A], the “polymerase ribozyme fitness (log ratio)” value was -4.54.

In the case of GACCAAUCUGCCGUCAGAGCUCGAGAACAUCUUCGGAUGCAGAGGAGGCAGGUUUCGGUGGCGCGAUAGCGCCAACGUCCUCAACCUCCAAUGCAUCCCACCACAUGAUGAUACCUGAAGAGCCUUGUUUUUUUG [C13G C53U G113A G128U], the “polymerase ribozyme fitness (log ratio)” value is -5.15.
